Assay results taken from a protein production outcome set (Wang et al. 2014).

Assay: label from the status in PepcDB records
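Also: failed if final PepcDB status was selected cloned or expressed and not failed if soluble or beyond.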

Sequence	protein production
MIKTHYAKLALSAFAVSILASCANLGMTGVADGNNSEQTYLGQINYQDQTITKASAKKLNREIDLQRASQLTLWAMPMVGMYQSYNSTIALFDLQEGDAPIIGLHEGYDGVYPFLTANVTTPYTISLVDLSETGPYVVNIPAGSIFGVANNAWQEPIKEIGSGNKETLLFVGPGQEYPKDFDGEVIQSDTNQILYFYRVLGVGAEAEKLKTAVTAYKLSDVANPPQVKFVIYKPKASDADVTIATQPRGMAYWEVVNQYIQNEPMADRDRFFYAWLKDLGIEKGKAFNPTPYQKEILLEGVNTGMAMAQSLAFNKTKKKFSSSLYGSDSGWEGVLAGMDPKIDLDTYSMINERTAYTYEAVTTSAGMIVENPGHGSAYIGSYYDADGNALMGGKNYTLHIEPNPPAANFWSITVYDIKNRLIIRNEIKRSDLSSRSESLVMNSDGSVDLYFGPEAPEGKEGNWIQSNDGESYFMYLRLYGPEQEYFDQTYPMNKIDKTK	failed
MIKVRVASRARAAEGIAQLDLVCAEGRDLPAFEAGAHIDLFLGNGLTRQYSLCSDPAERSFYRIAVLRELTSRGGSAYVHEALTEGATLEISPPRNLFALDETAEEHLLFAGGVGVTPILAMAKRLSALGRAFTFHYCARDRSRAAFLNELSTAPFTSAVRLSFDAEPDTRLDLDVALARPKPGRRLYVCGPGGFMTHVIDGALARGWSGDQIRKEHFAAAPLSAGQDQPFELVIASSGQIVTVAADQTAAQALEAAGVFVPVSCEQGVCGTCLTRVIDGQPDHRDAFQTDEERAANDQFTPCCSRARSPRLVLDL	failed
MIKVWLQQGRGLWLALFLGLLSPALVHAEEAPPGLVKVPLDRRVIDLTATLDSATQERMVHKLEALEQRRGAQIAVMLVPNLGQQSIEALSNQLFRAWKLGRKGVDDGILLLVAKNDHKVRIEVGYGLEPVVTDLLAGQIIAQDLTPAFRQGDFAGGIDRALDDLILLVDGGSLPEPAGLAVPLEAYALLLAFVFGSVAGVMLAAGWNWRRVLGGAVVLMAVLVGAVGGHEWLAQLFLVPLCMLIGGATFAGLWQARRVFYGVLGLLLYIGLLTLVSQYLGRLTFLYGLAWPAGVLLVLGGHWLLYWMMRNSWRKSPRGFLWRFAVLLTLVLLMGLGVDAWQAAQRWLRVVPFAYFLSFILFAGGSGFRWSSGGGSSSGGRSSSGGGFSGGGGSSGGGGASGSW	failed
MILHRYLLRESLPVLLLALLFLTAVYLFGFFYAGARWLEGVPLPKILRWLSYHVPGIWVQVFPIALVTTTVLVFGRLAAEGAHFALLSAGIPLGRAALPLVAVGAVLSGLALYLQEYVVPEANNRVRVAWWDEIHTQGAGLFRLKGMQIPIGQGKSLYFQDFDMAAKEMVGVRITAFQGEVGTFLFAERGTWEDKTLTLKDYRYYQVDFAQVPGLETAPDLLAQVRRVFRVVSQGKTLEVTSDLSRARAIADYADTFSFGQDSLSEAWRKLKDPFLPPLEKWRARLELHSKLALPLANLVLVLLAAAMALRYGKSPGLALGMSVVLALAYYGAFFLGRALAGIGALPPELGAWGANLLFLLLGLRALR	failed
MILKSSIDRLLQTIDIVEVISSYVNLRKSGSSYMACCPFHEERSASFSVNQIKGFYHCFGCGASGDSIKFVMAFEKLSFVEALEKLAHRFNIVLEYDKGVYYDHKEDYHLLEMVSSLYQEELFNAPFFLNYLQKRGLSLESIKAFKLGLCTNRIDYGIENKGLNKDKLIELGVLGKSDNDQKTYLRFLDRIMFPIYSPSAQVVGFGGRTLKEKAAKYINSPQSKLFDKSSLLYGYHLAKEHIYKQKQVIVTEGYLDVILLHQAGFKNAIATLGTALTPSHLPLLKKGDPEILLSYDGDKAGRNAAYKASLMLAKEQRRGGVILFENNLDPADMIANGQIETLKNWLSHPMAFIEFVLRRMADSYLLDDPLEKDKALKEMLGFLKNFSLLLQSEYKPLIATLLQAPLHVLGIRERVSFQPFYPKTEKPNRPQRFAHVSSAPSLEFLEKLVIRYLLEDRSLLDLAVGYIHSGVFLHKKQEFDALCQEKLDDPKLVALLLDANLPLKKGGFEKELRLLILRYFERQLKEIPKSSLPFSEKMICLKKARQAIMKLKQGELVAI	failed
MILLGVSERSDHSLHITGVDDAHKLVQDFWNTVHDSSTISSVVLSENDVVVRHTGQGDIVSIDIPRASRERIPVYVGPNPLKGSYRRNGDGDYLCDSETVHAMLRDSDLRPLDRKIVGG	failed
MILMMENRMPKGIQKTETSEKNIEKVLNAYDKQQHHHQDDLAIQYLPAVRAMAFRLKERLPSSIDFNDLVSIGTEELIKLARRYESALNDSFWGYAKTRVNGAMLDYLRSLDVISRSSRKLIKSIDIEITKHLNEHGKEPSDAYLAQTLGENIEKIKEAKTASDIYALVPIDEQFNAIEQDEITKKIEAEELLEHVQKALNQMSEREQILIQLYYFEELNLSEIKEILGITESRISQIIKEVIKKVRKSLGVDHG	failed
MILPWLILIPFIGGLLCWLGERFGATLPRWIALLTMTLELALGLWLWAHGNYSFAPAPGADPTWAIEFKHVWIERFGINVHLALDGLSLLMILLTGLLGILSVLCSWKEIQRHVGFFHLNLMWILGGVVGVFLALDLFMFFFFWEMMLVPMYFLIALWGHSSADGKKTRIYAATKFFIFTQASGLIMLVAILGLVLVNFNNTGVITFDYAQLLKTKMSTATEYILMLGFFIAFAVKLPVVPFHSWLPDAHAQAPTAGSVDLAGILLKTAAYGLLRFALPLFPNASAEFAPIAMTLGLIGIFYGAFLAFAQTDIKRLIAFSSVSHMGFVLIGIYSGSQQALQGAVIQMLAHGVSAAALFILSGQLYERTHTRDMREMGGLWSRIAYLPAISLFFAAASLGLPGTGNFVGEFLILIGTFVSAPWITAIATSGLVFGSVYSLIMIHRAYFGPSKSDAVLHGMDARELIMVLGLAVLLIYIGVYPQPFLDTSAATMHGVQQWLSTAFTQLASAR	failed
MILSMSGVVLLGIVVFLFFRKDGLKGTHACTCALFGFYLSSTAIAPSIKAGGASLASLLGGIRF	failed
MILSMSIFGSIGFFSVQTGLPSFELVFVRCICATIFLALCWLVTGQYKSEQWNKKEIMQILACGVFLVFNWVFLFKAFEVMSITIAISVYHLAPIIVLMIGSIVFKERLTMFAVLSIVICFIGTVLVAGVDGSLSLEKLMSSGMVWALLAALFYAFTTLLGKGIQHTSAYAMTFLQTFLGIFLLLPFVDFGKFQGLTEMNWMMITATGLIHTGFVYYLFFDSLRDLSTRMISVLVFLDPAVAILLDTVFTGFRPTSMQVVGIVLIFVGMAFTFRKTKDEEIAVKEKLYS	failed
MILTILIGAMAAIFIAFNLFEKKEKYGVVSYKTIALSVTYVILAVIVGSFLDNFNTLFQGFHDSLTAAKRY	failed
MILTRSSLVKRLTLMIMFAVIAVLVVAGISFNMLSQHHFRMLDEQALSEKLESTRHILSIQAPGTGMEELRPQLRALLGAHQDLTAEILTSEGEVLFSDLKAVQIPDKYKRADKEEMWEWQDESHNFRGITTDVEIQGQPAPGTVMLMLDITSHAHFFETLQRWFAIGLVISALVSAGIGWLVAKSGLRPVEQITKVATSISARSLQERIPLEPVPLELQTLILSFNGMLARLEDAFVRLSNFSADIAHELRTPVSNLLTHTEVVLTRKRDVDAYEENLYSNLEDLKRMSRMIDDMLFLAKSDNGLIIPEQVDIQLHDLVSKLFEYYQLLADDRGIRLTLQGKGVISGDRLMIDRAVSNILSNAVRYTPDGSGISVEIQQAADKVTLTIKNGGATIDPQHINKIFDRFYRADPARREGGPSNAGLGLAITRSIVKAHDGKVWCTSSEGVTAFNFIFPAAHRTAHIRTRH	failed
MILTSTEGQEGLPRYFPQVMKMLARMQAGRLDIALPDGRVFRSEGPEPGPVARVDIHDTDVFARLIREGELGFSDAYLEQDWSTPDLRAFMDLVHQGEETVYDGFTGQFLARAYERLRFWLQRNHRKQAKKNISYHYDLGNDFYALWLDETMTYSSALFETGQESLEKAQEAKYASLLDEMGAQPGDHILEIGCGWGGFAEYAARQRGMRVTGLTISQEQFKFARERIEKAGLSDQVHFKLQDYRDETGSYDGIASIEMFEAVGEKYWPVYFDTVRARLKPGKRATLQIITVADRRWEIYRNGVDFIQKYIFPGGMLPAPGILREQVARAGLEFVQSREFGKSYDLTLRRWYETFNDKWDQVAELGFDDRFRRMWNFYLTSCGAAFDTGTCDVTQMTVARPNHS	failed
MIMIDLSLIWIVIIAVGVFIYIVLDGFDLGIGILFPFIKDQHERDVMMNTVAPVWDGNETWMVLGGAGLFAAFPMVYSAVLSALYLPIILMVIALIFRGVAFEFRFKANRTKHLWDAAFIGGSIISSFLQGVILGAYIQGIHIVDGRYAGGGLDWLTPFSLFTGVGVVVVYAALGCGWLIMKTDHRLQLNMYSLMPKLMYALLIIFVCVSIYTPLSQPQIAARWFTQPQLTYFSPVPILVVIFTFLTVRACSKRQESMPFLYTLALVFLAYTGFLISIFPYIIPPSVTIWDAAAPANSQLFALIGALILIPIIIMYTIMAYWVFRDKVRVGDEGYH	failed
MIMLNKQGITISLCMIVRDEEETIARCLETVEKIVDEIIVVDTGSVDRTKEIVEKYTSNIYDFQWIDDFAAARNFSFSKATQEYILWLDADDVLLEDAQEALKLLKRELDPKIDAVSMPYHLAMDSNGKPLYCTKRNRLVKREKQFQWFGKVHEYLAISGEVFSSNVAITHKKEKKVTNRNLKIFQNTVAAGEELSPRDLFYYANESTDNQKYDDAVLLYETFLNQDEGWYEEKIYACGKLGDCYAKLGMWEKAIESCVKSFRYDVPRGENCTRIGYIYMEQEKYNEAIFWFKLATEVPMATESPFHSPASYTWLPYLQMCICYSRLGEQDKAYYYNELAASYVPNNAAIEYNRKYFRGVFDKPYKVLEHHHHHH	failed
MIMSKESIIFVGLFTVILSAVILMLSYTSSGQELNQYVKIEVQQGDTLWSIADQVADTKKINKNDFIEWVADKNQLQTSDIQPGDELVIPLKKKHQDAYELATVR	failed
MIPELPHAQLDWDDQGRPRSRVFDDVYFSSESGLDETRHVFIEQNRLGQRFAALADGERFVIGETGFGTGLNFLCAWQLFQQQAPTGARLHFVSVEKYPLSPADLQRALALWPELASFSAPLLEQYVAVHGGFQRIVLEGGRVILTLLIGDALEQLPQLDAQVDAWFLDGFAPAKNPDMWTAELFAELARLAAPGSTISTFTSTGWVRRLLNSAGFKMKRTPGIGHKWEVLRGEFLGWPEDAPAPARARPWFARPALGEKTALVIGGGLAGCASAASLAARGWQVQLLERHAELAREASGNPQGVLYLKLSAHGTALSQMILSGFGYTRRQLEHLQRGQDWDGCGVLQLAFNAKEAERQAQLAAAFPADLLHLLDQPQAQARAGIGLEHGGLFYPEGGWVHPPALCQWQASHPRIQVLAHREVLELRRVDEQWQAWDGDRMLASAAVVILAGAAEIKRFPASADLPLKRIRGQITRLPQTAQSQSLATVVCAEGYVAPARLGEHTLGASFDFKSQDLTPTSAEHAGNLEMLREISSDLLQRLGAEQLPLDSLQGRAAFRCTSPDYLPIVGPLADPLAFAETYAALGKDARQVPDLPCPWLDGLYINSGHGSRGLITAPLSGELLAAWLENEPLPLPRSVAEACHPNRFALRRLIRGKA	failed
MIPGMNAKQMKKMERQMKKMGMDMKDLKGVKEVIIRLEDKELVIPNAEVSLMNVMGQETYQVTGKAHEVAIDEELVIPDEDIEMVANQANVSEDEAKAALEDTNGDLAEAILKLNQ	failed
MIPLSESFESGIPAIWKTIDADGDGYNWMHLTNFTGQSGLCVSSASYIGGVGALTPDNYLITPELKLPTDALVEIIYWVCTQDLTAPSEHYAVYSSSTGNNAADFVNLLYEETLTAKRIQSPELIRGNRTQGVWYQRKVVLPNDTKYVAFRHFNSTDNFWLNLDEVSI	failed
MIPVFNITSNRGRLLQQISVGDIWGVGRQWANKLISRGIHTAYDLAMTNPHLLKKCFNAVLMRTAMELQGIACGGLEVLEHHHHHH	failed
